Legend:
[1] = test system: virulent capsular type 3 Streptococcus pneumoniae strain, WU2; experiment: Protection experiment, Example 4: active immunization of xid mice, challenge with WU2; format: in vivo; conditions: CBA/CaHN/J xid mice; about 22 μg s.c. in CFA, 100 μg IP 14 days later; IV challenge 60 CFU WU2; observed 21 days
Procedure: CBA/CaHN/J Mice. X-linked immune deficiency (xid) CBA/N mice as described by Wicker et al., Curr. Top. Microbiol, Immunol. 124:86-[0] were used to study the protection afforded by the 37-kDa protein.
Twenty CBA/CaHN/J mice carrying the xid mutation […] immunodeficiency) were used in this protection study. They were tested for protection against challenge with a virulent capsulan type 3 Streptococcus pneumoniae strain, WU2. Mice were anesthetized with Ketamine/Rompum and bled infraorbitally to obtain pre-immunization sera. 37-kDa protein (pneumococcal surface adhesin A) was emulsified in complete Freund's adjuvant (CFA) to a protein concentration of 54 μg per ml. Ten mice were injected subcutaneously into 2 axillary and 2 inguinal sites at 0.1 ml per site, delivering approximately 22 μg protein/mouse. Ten control mice were treated identically with CFA and buffer substituting for protein. Fourteen days later, the ten test mice were injected intraperitoneally (IP) with 100 μg of the 37-kDa protein; controls were injected IP with buffer. Eight days following the IP immunizations, all mice were bled infraorbitally to obtain post-immunization sera, and challenged intravenously (IV) with 60 CFU of a log phase culture of S. pneumoniae strain WU2. […]

[2] = test system: S. pneumoniae type 3 strain, WU2; experiment: Protection experiment, Example 5: active immunization of xid mice, challenge with WU2; format: in vivo, Streptococcus pneumoniae; conditions: CBA/CaHN/J xid mice immunized with 21 μg s.c. in CFA plus 100 μg IP boost; IV challenge 140 CFU WU2
Procedure: Twenty CBA/CaHN/J mice carrying the xid mutation were injected according to the following protocol:
1. All mice were bled prior to immunization to establish baseline immunity. Ten test mice were immunized subcutaneously in four sites with a total of 21 μg of 37-kDa protein antigen (pneumococcal fimbrial protein A) emulsified in Complete Freund's adjuvant (CFA). Ten control mice were immunized identically with CFA and buffer substituting for the antigen.
2. Fourteen days later, the mice were boosted intraperitoneally (IP) with 100 μg of the 37-kDa protein antigen (test mice) or with buffer (controls). No adjuvant was used with this booster immunization.
3. Eight days later, all mice were bled via the infraorbital sinus and the were collected and pooled into the two groups (immunized and controls). At the same time, blood was collected from individual mice to assay for antibody responses.
6. At the same time, the eighteen (8 test and 10 control) mice were challenged I.V with the same culture of WU2.
7. Deaths were tallied daily.

B1: 37-kDa protein: 37-kDa species-common S. pneumoniae protein, pneumococcal surface adhesin A (PsaA), used as immunogen (protein)
chain: CASGKKDTTSGQKLKVVATNSIIADITKNIAGDKIDLHSIVPIGQDPHEYEPLPEDVKKTSEADLIFYNGINLETGGNAWFTKLVENAKKTENKDYFAVSDGVDVIYLEGQNEKGKEDPHAWLNLENGIIFAKNIAKQLSAKDPNNKEFYEKNLKEYTDKLDKLDKESKDKFNKIPAEKKLIVTSEGAFKYFSKAYGVPSAYIWEINTEEEGTPEQIKTLVEKLRQTKVPSLFVESSVDDRPMKTVSQDTNIPIYAQIFTDSIAEQGKEGDSYYSMMKYNLDKIAEGLAK
survived (mice surviving/total) [1]: 10/10 | No. Dead/Total No. Challenged [2]: 0/8
